Earlier results as cited in paper PMC10086210.

Biological target: PD-L1 (Homo sapiens) (UniProt Q9NZQ7)
Chain of UniProt Q9NZQ7 (Q9NZQ7 19-238): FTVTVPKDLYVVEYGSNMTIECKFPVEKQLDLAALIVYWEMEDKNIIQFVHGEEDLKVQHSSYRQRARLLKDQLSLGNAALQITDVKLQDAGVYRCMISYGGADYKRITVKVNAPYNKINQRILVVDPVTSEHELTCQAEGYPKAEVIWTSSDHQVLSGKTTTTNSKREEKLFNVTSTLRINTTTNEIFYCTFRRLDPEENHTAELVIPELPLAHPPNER

Kd: 510 nM
Substance: DPPA-1
